{"source": "patent US20200199236A1", "key": {"[1]": {"target": "FcγRIIIa 158V (UniProt P08637)", "sequence (P08637 17-208 F176V)": "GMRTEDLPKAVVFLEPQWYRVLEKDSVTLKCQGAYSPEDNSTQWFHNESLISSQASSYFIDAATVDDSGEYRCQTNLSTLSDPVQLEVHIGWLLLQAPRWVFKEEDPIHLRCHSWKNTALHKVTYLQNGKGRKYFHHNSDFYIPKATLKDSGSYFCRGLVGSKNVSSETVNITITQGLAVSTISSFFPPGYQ", "assay": "biosensor with SA sensor, biotin-FcγRIIIa 158V loaded, antibody in solution (7 concentrations, 2x gradient from 500 nM)"}, "[2]": {"target": "FcγRIIIa 158F (UniProt P08637)", "sequence (P08637 17-208 limits assumed)": "as the sequence (P08637 17-208 F176V) above, with V160F counted along it", "assay": "biosensor with SA sensor, biotin-FcγRIIIa 158F loaded, antibody in solution"}}, "data": [{"substance": "Obinutuzumab (antibody)", "values": [{"measurement": "Kd", "setting": "[1]", "result": 36.8, "unit": "nM"}, {"measurement": "Kd", "setting": "[2]", "result": 226, "unit": "nM"}]}]}
